Laboratory results: US20160166638A1, “LACTOFERRIN-OSTEOPONTIN-IRON COMPLEX” (NESTEC S.A., priority 2013, published 2016)

Assay: Colour change of iron fortified strawberry-banana yoghurt after flash pasteurization (CIELAB colorimetry)
Type: physicochemical
Conditions: colour difference vs yoghurt with no iron salts; Jogolino Strawberry/Banana yoghurt, approx. 0.8 mg iron per 100 g; flash pasteurized at 105° C. for 2 minutes
Description: Commercial yoghurt, Nestlé Jogolino™ Strawberry/Banana yoghurt containing 15% banana puree and 10% strawberry puree, was iron fortified by the addition of different iron containing materials to 5 kg yoghurt as reported in the table below. The amounts were chosen to provide approximately 0.8 mg iron per 100 g yoghurt. A 100 g serving of yoghurt with that level of iron would provide 15% of the recommended daily amount of iron for an infant [Official Journal of the European Union, Commission Directive 2006/125/EC].
For the lactoferrin-osteopontin-iron complex (Trial B), the powder from Example 1 was added to yoghurt at a level of 28 g per 5 kg yoghurt. The resulting yoghurt composition comprised 5.6 g powder per kg which is 4 g LF-OPN-Fe complex per kg.
The yoghurts were flash pasteurized at 105° C. for 2 minutes. Colour measurements were performed in 1×1 cm polystyrene cuvettes using an X-Rite ColorEye 7000A colorimeter. The colorimeter was set up with a D65 light source, 10 degree observer angle and with specular component included. The colour difference between the yoghurt with no iron salts and the iron fortified yoghurt was measured for each iron salt and expressed as ΔEab* using the CIELAB colour scale.

B1: Lactoferrin-Fe: Lactoferrin obtained from Armor proteins, supplied with some iron complexed to it; comparison fortificant (protein, UniProt P24627 20-708, looked up)
Lactotransferrin: APRKNVRWCTISQPEWFKCRRWQWRMKKLGAPSITCVRRAFALECIRAIAEKKADAVTLDGGMVFEAGRDPYKLRPVAAEIYGTKESPQTHYYAVAVVKKGSNFQLDQLQGRKSCHTGLGRSAGWIIPMGILRPYLSWTESLEPLQGAVAKFFSASCVPCIDRQAYPNLCQLCKGEGENQCACSSREPYFGYSGAFKCLQDGAGDVAFVKETTVFENLPEKADRDQYELLCLNNSRAPVDAFKECHLAQVPSHAVVARSVDGKEDLIWKLLSKAQEKFGKNKSRSFQLFGSPPGQRDLLFKDSALGFLRIPSKVDSALYLGSRYLTTLKNLRETAEEVKARYTRVVWCAVGPEEQKKCQQWSQQSGQNVTCATASTTDDCIVLVLKGEADALNLDGGYIYTAGKCGLVPVLAENRKSSKHSSLDCVLRPTEGYLAVAVVKKANEGLTWNSLKDKKSCHTAVDRTAGWNIPMGLIVNQTGSCAFDEFFSQSCAPGADPKSRLCALCAGDDQGLDKCVPNSKEKYYGYTGAFRCLAEDVGDVAFVKNDTVWENTNGESTADWAKNLNREDFRLLCLDGTRKPVTEAQSCHLAVAPNHAVVSRSDRAAHVKQVLLHQQALFGKNGKNCPDKFCLFKSETKNLLFNDNTECLAKLGGRPTYEEYLGTEYVTAIANLKKCSTSPLLEACAFLTR
modifications: iron complex
notes: Lactoferrin obtained from Armor proteins, supplied with some iron complexed to it; comparison fortificant
For B1, the “ΔEab*” value was 5.64.
